Source: patent US20220235120A1 (UNIVERSITY OF MARYLAND BALTIMORE, published 2022)

Columns and labels:
[1] = target: Clostridium difficile toxin B (TcdB) (Clostridium difficile, UniProt P18177 2-2366); experiment: cell-based or functional assay
[2] = target: Clostridium difficile toxin A (TcdA) (Clostridium difficile, UniProt P16154 1-2710); experiment: cell-based or functional assay
Sequence of Clostridium difficile toxin A (TcdA) (P16154 whole entry): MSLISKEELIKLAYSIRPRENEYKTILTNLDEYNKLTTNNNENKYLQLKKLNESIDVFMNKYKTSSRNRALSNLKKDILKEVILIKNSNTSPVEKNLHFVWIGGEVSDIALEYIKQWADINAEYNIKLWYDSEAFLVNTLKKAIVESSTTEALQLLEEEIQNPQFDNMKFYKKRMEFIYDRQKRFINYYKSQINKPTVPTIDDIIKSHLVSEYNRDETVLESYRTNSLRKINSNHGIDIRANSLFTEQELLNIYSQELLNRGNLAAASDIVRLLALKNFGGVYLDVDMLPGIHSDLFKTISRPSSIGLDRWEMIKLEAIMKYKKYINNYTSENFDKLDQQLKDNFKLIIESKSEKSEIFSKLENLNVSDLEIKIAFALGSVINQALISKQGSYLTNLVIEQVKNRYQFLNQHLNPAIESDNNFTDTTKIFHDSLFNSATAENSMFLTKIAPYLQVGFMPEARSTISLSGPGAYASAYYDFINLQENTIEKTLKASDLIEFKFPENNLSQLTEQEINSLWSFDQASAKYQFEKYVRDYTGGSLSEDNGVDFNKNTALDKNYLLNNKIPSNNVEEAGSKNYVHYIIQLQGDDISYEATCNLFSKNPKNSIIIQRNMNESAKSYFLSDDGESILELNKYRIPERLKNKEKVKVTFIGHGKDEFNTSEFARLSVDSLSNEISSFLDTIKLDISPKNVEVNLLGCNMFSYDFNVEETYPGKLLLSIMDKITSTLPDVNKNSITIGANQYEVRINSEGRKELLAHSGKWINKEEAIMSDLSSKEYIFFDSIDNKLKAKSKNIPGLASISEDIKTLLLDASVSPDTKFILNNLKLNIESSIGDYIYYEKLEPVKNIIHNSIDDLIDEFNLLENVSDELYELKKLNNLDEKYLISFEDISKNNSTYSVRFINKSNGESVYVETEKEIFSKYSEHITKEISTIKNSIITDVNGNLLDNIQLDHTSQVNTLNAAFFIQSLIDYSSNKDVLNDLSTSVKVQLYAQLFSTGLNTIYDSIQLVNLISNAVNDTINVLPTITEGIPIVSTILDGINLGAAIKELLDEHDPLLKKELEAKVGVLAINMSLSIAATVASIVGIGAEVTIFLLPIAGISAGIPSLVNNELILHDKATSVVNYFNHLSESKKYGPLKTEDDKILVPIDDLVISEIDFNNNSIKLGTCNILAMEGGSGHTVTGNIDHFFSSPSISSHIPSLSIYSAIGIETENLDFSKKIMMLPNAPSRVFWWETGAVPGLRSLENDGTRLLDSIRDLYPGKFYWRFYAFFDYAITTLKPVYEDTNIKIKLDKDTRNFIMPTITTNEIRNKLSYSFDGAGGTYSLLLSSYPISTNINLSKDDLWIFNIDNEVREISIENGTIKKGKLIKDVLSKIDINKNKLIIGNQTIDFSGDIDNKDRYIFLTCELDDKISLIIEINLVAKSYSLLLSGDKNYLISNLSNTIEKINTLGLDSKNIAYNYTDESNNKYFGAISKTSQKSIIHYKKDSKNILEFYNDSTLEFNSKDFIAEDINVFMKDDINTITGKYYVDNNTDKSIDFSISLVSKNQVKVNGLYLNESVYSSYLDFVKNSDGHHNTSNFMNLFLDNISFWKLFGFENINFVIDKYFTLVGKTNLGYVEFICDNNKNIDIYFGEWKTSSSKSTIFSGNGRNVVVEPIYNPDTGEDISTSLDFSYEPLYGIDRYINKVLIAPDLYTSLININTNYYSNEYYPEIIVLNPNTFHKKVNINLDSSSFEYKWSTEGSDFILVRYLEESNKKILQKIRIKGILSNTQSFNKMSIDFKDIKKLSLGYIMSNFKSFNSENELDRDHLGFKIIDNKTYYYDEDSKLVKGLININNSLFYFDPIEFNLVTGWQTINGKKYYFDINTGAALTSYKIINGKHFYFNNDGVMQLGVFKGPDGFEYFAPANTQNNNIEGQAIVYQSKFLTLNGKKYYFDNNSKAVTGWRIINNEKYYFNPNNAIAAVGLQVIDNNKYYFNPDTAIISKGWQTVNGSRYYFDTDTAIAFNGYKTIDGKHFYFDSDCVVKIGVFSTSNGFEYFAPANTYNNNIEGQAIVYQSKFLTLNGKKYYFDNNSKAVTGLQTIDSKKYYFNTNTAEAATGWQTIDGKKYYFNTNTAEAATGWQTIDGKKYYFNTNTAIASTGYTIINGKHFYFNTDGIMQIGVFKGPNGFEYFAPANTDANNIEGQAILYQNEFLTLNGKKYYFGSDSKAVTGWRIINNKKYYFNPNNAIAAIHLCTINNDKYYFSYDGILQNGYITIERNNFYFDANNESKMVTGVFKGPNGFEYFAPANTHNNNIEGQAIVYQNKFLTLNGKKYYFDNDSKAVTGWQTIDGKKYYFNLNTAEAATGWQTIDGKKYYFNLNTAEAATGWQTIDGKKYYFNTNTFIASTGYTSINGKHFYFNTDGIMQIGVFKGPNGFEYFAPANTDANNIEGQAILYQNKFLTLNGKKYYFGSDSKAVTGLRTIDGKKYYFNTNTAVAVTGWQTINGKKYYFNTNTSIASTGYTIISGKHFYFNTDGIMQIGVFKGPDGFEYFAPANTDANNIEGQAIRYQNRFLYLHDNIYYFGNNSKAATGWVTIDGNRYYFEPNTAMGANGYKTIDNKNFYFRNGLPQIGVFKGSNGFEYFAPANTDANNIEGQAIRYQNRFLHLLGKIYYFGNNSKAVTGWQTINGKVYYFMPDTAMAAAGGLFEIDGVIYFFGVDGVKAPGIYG

Sequence of Clostridium difficile toxin B (TcdB) (P18177 2-2366 limits assumed): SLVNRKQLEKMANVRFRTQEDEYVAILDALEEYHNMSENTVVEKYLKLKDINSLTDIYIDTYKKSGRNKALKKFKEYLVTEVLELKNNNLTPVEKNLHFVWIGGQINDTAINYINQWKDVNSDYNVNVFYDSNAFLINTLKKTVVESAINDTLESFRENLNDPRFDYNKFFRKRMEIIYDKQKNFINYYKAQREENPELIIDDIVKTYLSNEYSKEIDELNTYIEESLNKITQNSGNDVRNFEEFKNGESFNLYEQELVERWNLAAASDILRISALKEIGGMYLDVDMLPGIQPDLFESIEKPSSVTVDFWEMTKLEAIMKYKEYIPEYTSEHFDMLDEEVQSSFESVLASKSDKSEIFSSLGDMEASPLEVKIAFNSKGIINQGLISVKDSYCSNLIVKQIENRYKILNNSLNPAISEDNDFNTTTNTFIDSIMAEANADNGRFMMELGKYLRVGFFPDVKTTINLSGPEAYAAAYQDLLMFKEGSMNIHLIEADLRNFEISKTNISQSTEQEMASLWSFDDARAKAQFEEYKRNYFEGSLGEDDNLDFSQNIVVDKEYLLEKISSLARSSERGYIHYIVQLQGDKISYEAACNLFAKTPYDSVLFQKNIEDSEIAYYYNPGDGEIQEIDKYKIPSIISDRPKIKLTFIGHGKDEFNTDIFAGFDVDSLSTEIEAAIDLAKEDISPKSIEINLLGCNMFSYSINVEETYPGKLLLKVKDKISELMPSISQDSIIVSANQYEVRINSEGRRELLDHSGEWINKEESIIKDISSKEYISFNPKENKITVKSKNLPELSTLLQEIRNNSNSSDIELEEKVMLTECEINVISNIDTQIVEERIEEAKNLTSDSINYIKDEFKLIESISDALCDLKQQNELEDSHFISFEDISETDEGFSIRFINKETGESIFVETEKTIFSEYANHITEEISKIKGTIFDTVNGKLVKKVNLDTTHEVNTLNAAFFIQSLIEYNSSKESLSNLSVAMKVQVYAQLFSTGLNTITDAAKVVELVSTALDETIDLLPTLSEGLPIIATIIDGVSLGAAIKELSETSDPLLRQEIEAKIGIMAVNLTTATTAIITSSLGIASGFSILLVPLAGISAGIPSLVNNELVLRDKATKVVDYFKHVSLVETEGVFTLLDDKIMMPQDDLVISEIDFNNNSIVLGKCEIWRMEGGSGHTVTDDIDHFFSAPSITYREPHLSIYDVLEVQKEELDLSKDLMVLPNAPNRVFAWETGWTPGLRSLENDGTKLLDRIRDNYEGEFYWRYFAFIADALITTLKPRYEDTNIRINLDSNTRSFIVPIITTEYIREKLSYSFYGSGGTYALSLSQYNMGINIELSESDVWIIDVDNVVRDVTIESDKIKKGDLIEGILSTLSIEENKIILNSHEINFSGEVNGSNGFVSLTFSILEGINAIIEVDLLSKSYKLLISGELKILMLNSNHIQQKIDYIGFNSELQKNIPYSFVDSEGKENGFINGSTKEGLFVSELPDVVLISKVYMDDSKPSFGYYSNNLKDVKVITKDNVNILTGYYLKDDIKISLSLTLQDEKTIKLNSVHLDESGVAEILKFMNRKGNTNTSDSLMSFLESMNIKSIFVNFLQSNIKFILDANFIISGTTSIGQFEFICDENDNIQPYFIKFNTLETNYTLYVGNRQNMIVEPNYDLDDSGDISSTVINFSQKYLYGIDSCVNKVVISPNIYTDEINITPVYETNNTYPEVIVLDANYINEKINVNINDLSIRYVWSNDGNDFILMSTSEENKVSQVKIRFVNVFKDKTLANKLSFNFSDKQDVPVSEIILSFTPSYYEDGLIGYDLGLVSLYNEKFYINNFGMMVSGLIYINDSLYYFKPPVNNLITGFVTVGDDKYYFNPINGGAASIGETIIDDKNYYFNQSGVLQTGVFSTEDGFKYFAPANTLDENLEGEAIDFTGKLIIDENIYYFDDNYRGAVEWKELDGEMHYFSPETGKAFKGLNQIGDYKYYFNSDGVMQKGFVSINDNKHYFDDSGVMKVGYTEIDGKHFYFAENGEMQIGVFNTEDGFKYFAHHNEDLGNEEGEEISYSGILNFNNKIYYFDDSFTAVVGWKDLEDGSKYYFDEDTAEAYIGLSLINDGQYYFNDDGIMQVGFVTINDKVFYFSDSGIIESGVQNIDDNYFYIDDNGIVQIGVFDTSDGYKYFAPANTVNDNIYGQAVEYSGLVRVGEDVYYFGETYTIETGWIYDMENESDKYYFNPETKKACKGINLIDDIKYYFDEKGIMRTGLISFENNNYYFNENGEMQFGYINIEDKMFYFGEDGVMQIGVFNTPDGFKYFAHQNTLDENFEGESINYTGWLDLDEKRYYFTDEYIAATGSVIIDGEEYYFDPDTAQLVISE

B1: FZ003 binding agent (tetra-specific, octameric VHH-IgG1 with CDR-grafted humanized VHHs) (bispecific antibody)
light: EVQLLESGGGLVQPGGSLRLSCAASGFTFSDYVMTWVRQAPGKGPEWIATINTDGSTMRDDSTKGRFTISRDNSKNTLYLQMNSLRAEDTAVYYCARGRVISASAIRGAVRGQGTLVTVSSGGGGSGGGGSGGGGSEVQLLESGGGLVQPGGSLRLSCAASGSIAGFETVTWSRQAPGKSLQWVASMTKTNNEIYSDSVKGRFTISRDNSKNTVYLQMNSLRAEDTAVYYCKGPELRGQGTLVTVSSRTVAAPSVFIFPPSDEQLKSGTASVVCLLNNFYPREAKVQWKVDNALQSGNSQESVTEQDSKDSTYSLSSTLTLSKADYEKHKVYACEVTHQGLSSPVTKSFNRGEC
heavy: not shown
survival in mouse systemic toxin challenge (toxins pre-incubated with antibody) [1]: > 1000 fold more potent than the Merck antibody | survival in mouse systemic toxin challenge (toxins pre-incubated with antibody) [2]: > 1000 fold more potent than the Merck antibody
